Experimental data from WO2021084104A1 (dated 2021).
One block for each binder: values may come before it.

Tests used:
[1] = biological target: T1, full-length CD40 on cells (transfected CHO-S cells, Raji B-cell line, primary B cells) (human, UniProt P25942 21-277); test: flow cytometry on transfected and endogenously expressing cells (Fig. 6B)
T1 construct: whole, on cells; also called target expressing cells

[2] = biological target: T2, full-length 4-1BB on cells (transfected CHO-S cells, in vitro activated CD4 positive T-cells) (human, UniProt Q07011 24-255); test: as above
T2 construct: whole, on cells; also called target expressing cells

[3] = biological target: T1, full-length CD40 on cells (transfected …); test: flow cytometry on transfected and endogenously expressing cells (Fig. 6A)
[4] = biological target: T3, full-length OX40 on cells (transfected CHO-S cells, in vitro activated CD4 positive T-cells) (human, UniProt P43489 29-277); test: as above
T3 construct: whole, on cells; also called 0X40; target expressing cells
T3 sequence (looked up): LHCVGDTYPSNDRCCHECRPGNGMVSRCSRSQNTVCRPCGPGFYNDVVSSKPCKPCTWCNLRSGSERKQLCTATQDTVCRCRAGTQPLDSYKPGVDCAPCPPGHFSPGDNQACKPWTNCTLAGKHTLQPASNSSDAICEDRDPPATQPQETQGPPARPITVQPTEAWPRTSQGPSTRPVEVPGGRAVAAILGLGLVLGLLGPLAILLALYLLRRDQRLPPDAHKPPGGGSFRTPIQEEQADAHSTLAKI

[5] = biological target: T1, full-length CD40 on cells (transfected …); test: flow cytometry on overexpressing or endogenously expressing cells (Fig. 7)
[6] = biological target: T3, full-length OX40 on cells (transfected …); test: as above
[7] = biological target: T2, full-length 4-1BB on cells (transfected …); test: flow cytometry on transfected and endogenously expressing cells (Fig. 6C)
[8] = biological target: T3, full-length OX40 on cells (transfected …); test: as above

T1 sequence (P25942 21-277): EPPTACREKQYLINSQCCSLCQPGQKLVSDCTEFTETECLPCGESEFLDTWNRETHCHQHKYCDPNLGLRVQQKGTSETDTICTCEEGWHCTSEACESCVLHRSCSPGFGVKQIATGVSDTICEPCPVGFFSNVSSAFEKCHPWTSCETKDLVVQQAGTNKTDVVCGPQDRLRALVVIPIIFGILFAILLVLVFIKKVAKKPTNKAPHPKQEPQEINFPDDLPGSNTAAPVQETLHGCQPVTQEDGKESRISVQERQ
T2 sequence (Q07011 24-255): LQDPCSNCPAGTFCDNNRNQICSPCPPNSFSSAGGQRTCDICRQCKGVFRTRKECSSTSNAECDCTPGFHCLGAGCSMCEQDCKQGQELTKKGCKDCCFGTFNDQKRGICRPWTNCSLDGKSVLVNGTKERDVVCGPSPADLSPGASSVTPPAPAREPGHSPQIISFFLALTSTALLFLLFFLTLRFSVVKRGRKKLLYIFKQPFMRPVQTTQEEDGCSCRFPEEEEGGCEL

B3: tetra VH IgG #5 (VH-CH1=CD40 #5, VH-CL=OX40 #2) (bispecific antibody, V domains shown, not shown: a dimerising Fc or GST)
V domain 1: EVQLLESGGGLVQPGGSLRLSCAASGFTFSSYTMDWVRQAPGKGLEWVSSISESGDTTDYADSVKGRFTISRDNSKNTLYLQMNSLRAEDTAVYYCARCSGGSCYSVNWGQGTLVTVSS
V domain 2: EVQLLESGGGLVQPGGSLRLSCAASGFTFSSYAMSWVRQAPGKGLEWVSGVSGGGGSTYYADSVRGRFTISRDNSKNTLYLQMNSLRAEDTAVYYCARGWDDINVWGQGTLVTVSS
notes: Human IgG1 format with a VH in place of the VL; no VL domain; also called tetra VH lgG#5
binding result [5]: binds | binding result [6]: binds

B4: tetra VH IgG #20 (VH-CH1=41BB #4, VH-CL=OX40 #2) (bispecific antibody, V domains shown, not shown: a dimerising Fc or GST)
V domain 1: EVQLLESGGGLVQPGGSLRLSCAASGFTFGDYAMSWFRQAPGKGLEWVAVLSYDGSNTDYADSVKGRFTISRDNSKNTLYLQMNSLRAEDTAVYYCAKGPLILAAGNYWGQGTLVTVSS
V domain 2: EVQLLESGGGLVQPGGSLRLSCAASGFTFSSYAMSWVRQAPGKGLEWVSGVSGGGGSTYYADSVRGRFTISRDNSKNTLYLQMNSLRAEDTAVYYCARGWDDINVWGQGTLVTVSS
notes: Human IgG1 format with a VH in place of the VL; no VL domain; also called anti 0X40/41 BB tetra-VH IgG
binding result [7]: binds | binding result [8]: binds

Further lines, results first:

binding result [1]: binds | binding result [2]: binds
B1: tetra VH IgG #4 (VH-CH1=41BB #4, VH-CL=CD40 #3) (bispecific antibody, V domains shown, not shown: a dimerising Fc or GST)
V domain 1: EVQLLESGGGLVQPGGSLRLSCAASGFTFGDYAMSWFRQAPGKGLEWVAVLSYDGSNTDYADSVKGRFTISRDNSKNTLYLQMNSLRAEDTAVYYCAKGPLILAAGNYWGQGTLVTVSS
V domain 2: EVQLLESGGGLVQPGGSLRLSCAASGFTFSSYAMSWVRQAPGKGLEWVSRLNSDGITATYADSVKGRFTISRDNSKNTLYLQMNSLRAEDTAVYYCARGKIPAIDHWGQGTLVTVSS
notes: Human IgG1 format with a VH in place of the VL; no VL domain; also called tetra VH lgG#4; anti-41 BB/CD40 tetra-VH IgG

binding result [3]: binds | binding result [4]: binds
B2: tetra VH IgG #2 (VH-CH1=OX40 #2, VH-CL=CD40 #5) (bispecific antibody, V domains shown, not shown: a dimerising Fc or GST)
V domain 1: EVQLLESGGGLVQPGGSLRLSCAASGFTFSSYAMSWVRQAPGKGLEWVSGVSGGGGSTYYADSVRGRFTISRDNSKNTLYLQMNSLRAEDTAVYYCARGWDDINVWGQGTLVTVSS
V domain 2: EVQLLESGGGLVQPGGSLRLSCAASGFTFSSYTMDWVRQAPGKGLEWVSSISESGDTTDYADSVKGRFTISRDNSKNTLYLQMNSLRAEDTAVYYCARCSGGSCYSVNWGQGTLVTVSS
notes: Human IgG1 format with a VH in place of the VL; no VL domain; also called anti-CD40/OX40 tetra-VH IgG; OX40/CD40 bispecific antibody
